These results are taken from patent publication US20220227848A1 (NORDIC BIOSCIENCE A S, published 2022).

Experiment [1] addresses T1, selection peptide GLPVPGCWHK, the last 10 amino acids of the C-terminus of type XXIII collagen alpha 1 chain ….
T1 construct: Synthetic peptide (Genscript); also called target peptide; standard peptide
T1 peptide: GLPVPGCWHK
The experiment in a line: figure legend (FIG. 1A/1B), PRO-C23 competitive ELISA. The protocol: (§1) ELISA-plates used for the assay development were Streptavidin-coated from Roche (cat.: 11940279). All ELISA plates were analyzed with the ELISA reader from Molecular Devices, SpectraMax M, (CA, USA). The selected monoclonal antibody was labelled with horseradish peroxidase (HRP) using the Lightning link HRP labeling kit according to the instructions of the manufacturer (Innovabioscience, Babraham, Cambridge, UK). A 96-well streptavidin plate was coated with biotin-[…] (SEQ. ID No. 1) (Genscript, USA) and incubated 30 minutes at 20° C. 20 μL of standard peptide or samples were added to appropriate wells, followed by 100 μL of HRP conjugated monoclonal antibody 10F6, and incubated 20 hour at 4° C. Finally, 100 μL tetramethylbenzidine (TMB) (Kem-En-Tec cat.4380H) was added and the plate was incubated 15 minutes at […] in the dark. All the above incubation steps included shaking at 300 rpm. After each incubation step, the plate was washed five times. The TMB reaction was stopped by adding 100 μL of stopping solution (1% H₂SO₄) and measured at 450 nm with 650 nm as the reference.
(§2) Like type XXIII collagen, type XIII and XXV collagens are also transmembrane collagens and share highly similar sequences in their C-terminus (FIG. 1A). To fully investigate the specificity of the antibody, a series of peptides were synthesized and included in the inhibition test. […] (SEQ. ID No. 5) (FIG. 1B).
A general note: An ELISA detects its analyte on a solid surface through an enzyme-linked reagent.

For experiment [2], the target named is T2, elongated peptide GLPVPGCWHKA
T2 peptide: GLPVPGCWHKA
Briefly: competitive ELISA (PRO-C23 assay), peptide inhibition test. As for the experimental part:
as §1, §2

The target in experiment [3] is T3, type XXV collagen C-terminal peptide GLPMPGCWQK
T3 construct: Synthetic peptide (Genscript); also called peptide from type XXV collagen; deselection peptide
T3 peptide: GLPMPGCWQK
The description is as above. As for the experimental part: as §1, §2

Experiment [4] has as its target T4, truncated peptide GLPVPGCWH
T4 peptide: GLPVPGCWH
Described as above. The protocol: as §1, §2

In experiment [5] the target is T5, type XIII collagen C-terminal peptide GLPVQGCWNK
T5 construct: Synthetic peptide (Genscript); also called peptide from type XIII collagen; deselection peptide
T5 peptide: GLPVQGCWNK
The description is as above. The protocol:
as §1, §2

B1: monoclonal antibody 10F6 (antibody, mouse IgG2b, kappa, V domains shown)
VH: EVKLVESGGGLVKPGGSLKLSCAASGFTFSSYAMSWVRQTPEKRLAWVASISTAGRTYYPDTVRGRITISRDNARNILYLQMSSLRSEDTAIYYCARPDYDYDGYINWGQGTLVTVSA
VL: DIVMTQAAFSNPVTLGTSAYISCRSSKSLLHSNGVTYLYWYLQKPGQSPQLLIYQMSNLASGVPDRFSSSGSGTDFTLRISRVEAEDVGVYYCAQNLELPLTFGAGTKLELKR
notes: Mouse (Balb/C) hybridoma antibody purified on an IgG column; also called PRO-C23 antibody 10F6; PRO-C23 antibody
On to B1, for which the binding result is on record as “binds” in experiment [1]; “no binding” in experiment [2]; “no binding” in experiment [3]; “no binding” in experiment [4]; “no binding” in experiment [5].
